The text below walks through data of patent US20230000771A1 (WISCONSIN ALUMNI RESEARCH FOUNDATION, published 2023).

Where no end group is shown, it is not given here.

Assay [1] addresses T1, PD-L1 (SPR target) (UniProt Q9NZQ7 19-238, limits assumed).
T1 construct: also called PD-L1/CD274
The assay can be described thus: SPR; drawn table under the sensorgrams, column KD. For orientation: In SPR one partner is held on a chip, and binding of the other changes the refractive index at the surface.

Assay [2] addresses T1, PD-L1 (SPR target). As to the kind of experiment: SPR; drawn table under the sensorgrams, column Ka.
In assay [3] the target is T1, PD-L1 (SPR target). The assay can be described thus: SPR; drawn table under the sensorgrams, column Kd.
Assay [4] deals with T1, PD-L1 (SPR target). The assay can be described thus: SPR.

T1 sequence (Q9NZQ7 19-238 limits assumed): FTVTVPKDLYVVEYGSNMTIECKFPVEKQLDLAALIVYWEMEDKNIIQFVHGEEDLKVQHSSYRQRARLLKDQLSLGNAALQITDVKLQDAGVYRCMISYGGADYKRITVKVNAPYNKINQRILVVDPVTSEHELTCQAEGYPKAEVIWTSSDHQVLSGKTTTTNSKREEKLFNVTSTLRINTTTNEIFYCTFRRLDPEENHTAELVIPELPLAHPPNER

B1: aPD-L1 (full anti-PD-L1 antibody) (antibody, V domains shown)
VH: EVQLLESGGGLVQPGGSLSLSCAASGFSFSSGYDMCWVRQAPGKGLEWIACIAAGSAGITYDANWAKGRFTISRDNSKNTLYLQMNSLRAEDTAVYYCARSAFSFDYAMDLWGQGTLVTVSS
VL: DIQMTQSPSTLSASVGDRVTITCQASQSISSHLNWYQQKPGKAPKLLIYKASTLASGVPSRFSGSGSGTEFTLTISSLQPDDFATYYCQQGYSWGNVDNVFGGGTKVTVL
As a reminder, the Kd is the constant that tells how readily two partners part at equilibrium. A low value points to tighter binding. In general, kon refers to a measure of how fast the partners come together. Low values mean slower complex formation, high ones faster complex formation. By koff is commonly meant the rate constant with which the complex falls apart. Read a high koff as fast dissociation. As for B1, in assay [1], the Kd stood at 2.09 nM. The molecule further returned a kon in assay [2] of 583000 M⁻¹ s⁻¹. Besides, in assay [3], the koff came out at 0.00122 s⁻¹.

B2: dendrimer-peptide conjugate G7-pPD1 (pPD-1 peptides conjugated to PAMAM dendrimer) (other)
peptide: HVVWHRESPSGQTDTLAA
modifications: not fully specified (C-terminus); also: conjugated to G7 PAMAM dendrimer, attachment site and number per dendrimer not given here
notes: Multivalent conjugate; Only the peptide part is a polypeptide; also called dendrimer-pPD-1; dendrimer-peptide conjugates
In assay [1], B2 came in with a Kd of 2.75 nM. In assay [2], this molecule came in with a kon of 252000 M⁻¹ s⁻¹. This molecule had a koff in assay [3] of 0.000693 s⁻¹. The “strength of KD relative to free peptide (pPD1)” value in assay [4] is ~100000 fold.

With HVVWHRESPSGQTDTLAA (not fully specified (C-terminus), also called free pPD-1) [PD-L1-binding peptide (pPD-1), free peptide], binding in assay [1] was characterised by a dissociation constant (Kd) of 119000 nM. In assay [3], this molecule gave a koff of 0.127 s⁻¹.
